The values below come from FireProtDB (doi:10.1016/0022-2836(91)90566-o).

Sequences and labels used below:
B1: DNA-Binding protein, P69542 (parent)
chain: MIKVEIKPSQAQFTTRSGVSRQGKPYSLNEQLCYVDLGNEYPVLVKITLDEGQPAYAPGLYTVHLSSFKVGQFGSLMIDRLRLVPAK

The variants in the series derive from B1. The settings on record: Enterobacteria phage fd; pH 7; 25 °C; GdnHCl; CD; MOPS 50 mM; NaCl 100 mM; reversible: yes; structure 1VQB; whole UniProt chain shown.

With D50H, the “ddG of mutation (higher = less stable)” value turned out to be 1.5 kcal/mol, the denaturant m value worked out at 3.8 kcal/mol/M, the “denaturant midpoint (higher = more stable)” value (“denaturant midpoint” for short) turned out to be 2.1 M and the unfolding free energy is 7.5 kcal/mol.

In the case of F68L, the “ddG of mutation (higher = less stable)” value stood at 4.2 kcal/mol, the denaturant m value came to 3.4 kcal/mol/M, the “denaturant midpoint” value was determined as 1.4 M and the unfolding free energy amounted to 4.8 kcal/mol.

For the variant C33S, the “ddG of mutation (higher = less stable)” value is 4.2 kcal/mol, the denaturant m value is 4 kcal/mol/M, the “denaturant midpoint” value stood at 1.4 M and the unfolding free energy was 4.8 kcal/mol.

As to K69M, the “ddG of mutation (higher = less stable)” value was -0.2 kcal/mol, the denaturant m value is 3.1 kcal/mol/M, the “denaturant midpoint” value came out at 2.7 M and the unfolding free energy was determined as 9.2 kcal/mol.

E30M: the “ddG of mutation (higher = less stable)” value is -0.7 kcal/mol, the denaturant m value turned out to be 3.7 kcal/mol/M, the “denaturant midpoint” value was 2.78 M and the unfolding free energy stood at 9.7 kcal/mol.

On to V70P, for which the “ddG of mutation (higher = less stable)” value stood at 5 kcal/mol, the denaturant m value amounted to 4.4 kcal/mol/M, the “denaturant midpoint” value was found to be 1.3 M and the unfolding free energy was 4 kcal/mol.

Consider V70C, for which the “ddG of mutation (higher = less stable)” value came to 3.1 kcal/mol, the denaturant m value was 4.4 kcal/mol/M, the “denaturant midpoint” value is 1.7 M and the unfolding free energy was determined as 5.9 kcal/mol.

On to D36C, for which the “ddG of mutation (higher = less stable)” value was found to be 2 kcal/mol, the denaturant m value was 3.5 kcal/mol/M, the “denaturant midpoint” value turned out to be 2 M and the unfolding free energy was 7 kcal/mol.

For the variant D36N, the “ddG of mutation (higher = less stable)” value is 1 kcal/mol, the denaturant m value amounted to 4.2 kcal/mol/M, the “denaturant midpoint” value came out at 2.2 M and the unfolding free energy came out at 8 kcal/mol.

Take I47T: the “ddG of mutation (higher = less stable)” value was 7.4 kcal/mol, the denaturant m value turned out to be 4.9 kcal/mol/M, the “denaturant midpoint” value amounted to 0.9 M and the unfolding free energy turned out to be 1.6 kcal/mol.
